From patent US20220242974A1 (QURE BIOTECHNOLOGY SHANGHAI, published 2022) come the findings set out here.

Sequences and labels used below:
B1: QP1129 nanobody (VHH)
VHH: QVQLVESGGGSVQSGGSLRLSCAASGYSSSRYSVGWFRQAPGKEREGVAGQTPRGTTTYADSVKDRFTISRDNAKNTVYLQMNSLKPEDTAMYYCAAGQALLWASLRQTSYQFWGQGTQVTVSS
notes: as m59
B2: QP1130 nanobody (VHH)
VHH: QVQLVESGGGLVQPGGSLRLSCAASGFTFSTSTMMWVRRAPGKGLEWVSGIHNDGGPIAYADSVKGRFTISRDNAKNTLYLQMTSLKSEDTALYYCARGWYFSGDYVPMTQGTQVTVSS
notes: as m59
B3: QP1163 nanobody (VHH)
VHH: QVQLVESGGGSVQSGGSLRLSCAASGFTYGTYAMSWFRQAPGKEREGVACIDIYGRTSYTDPVKGRFTISQDNAKNTLYLQMNSLKPEDTAMYYCAARDFGYCTASWVHAGFSRYWGQGTQVTVSS
notes: as m59
B4: QP1164 nanobody (VHH)
VHH: QVQLVESGGGSVQSGGSLRLSCAASGFTYGTYAMSWFRQTPGKEREGVACIDIYGRTSYTDPVKGRFTISQDNAKNTLYLQMNSLKPEDTAMYYCAARDFGYCTASWVHEGFSRYWGQGTQVTVSS
notes: as m59
B5: QP1169 nanobody (VHH)
VHH: QVQLVESGGGSVQSGGSLRLSCAASGFTYGTYAMSWFRQAPGKEREGVACIDIYGRTSYTDPVKGRFTISQDNAKNTLYLQMNSLKPGDTAMYYCAARDFGYCTASWVHEGFSRYWGQGTQVTVSS
notes: as m59
B6: QP1165 nanobody (VHH)
VHH: QVQLVESGGGSVQSGGSLRLSCAASGFTYGAYAMSWFRQAPGKEREGVACIDIYGRTSYTDPVKGRFTISQDNAKNTLYLQMNSLKPEDTAMYYCAARDFGYCTASWVHEGFSRYWGQGTQVTVSS
notes: as m59
B7: QP1168 nanobody (VHH)
VHH: QVQLVESGGGSVQSGGSLRLSCAASGFTYETYAMSWFRQAPGKEREGVACIDIYGRTSYTDPVKGRFTISQDNAKNTLYLQMNSLKPEDTAMYYCAARDFGYCTASWVHEGFSRYWGQGTQVTVSS
notes: as m59
B8: QP1123 nanobody (VHH)
VHH: QVQLVESGGGSVQSGGSLRLSCAASGYTVRHYCMGWFRQTPGKEREGVASIDTFGIPKYADSVKGRFTISQDNAKNTLNLQMDSLKPEDTAMYFCAGRSYTNCRDGPPSASHYSHWGQGTQVTVSS
notes: as m59
B9: QP1147 nanobody (VHH)
VHH: QVQLVESGGGSVQAGGSLTLSCAVSGNTYSTKYMGWFRQAPGKEREGVAAILAGGRNTYYADSVKGRFTISQDNAKNTVYLQMNSLKPEDTAMYYCAADTRAAFWYIGPLNSDQYNIWGQGTQVTVSS
notes: as m59
B10: QP1159 nanobody (VHH)
VHH: QVQLVESGGGSVQAGGSLTLSCAVSGNTYSTKYMGWFRQAPGKEREGVAAILAGGRNTSYADSVKGRFTISQDNAKNTVYLQMNSLKPEDTAMYYCAADTRAAFWYIGPLNSDQYNIWGQGTQVTVSS
notes: as m59
B11: QP1143 nanobody (VHH)
VHH: QVQLVESGGGSVQAGGSLTLSCAVSGNTYSTKYMGWFRQAPGKEREGVAAILAGGRDTYYADSVKGRFTISQDNAKNTVYLQMNSLKPEDTAMYYCAADTRAAFWYIGPLNSDQYNIWGQGTQVTVSS
notes: as m59
B12: QP1161 nanobody (VHH)
VHH: QVQLVESGGGSVQAGGSLTLSCAVSGNTYSTNYMAWFRQAPGKEREGVAAIRVGGRNTDYADSVKGRFTISQDNAKNTVYLQMNSLKPEDTAMYYCAADTRAAFWYIGPLNSDQYNIWGQGTQVTVSS
notes: as m59
B13: QP1145 nanobody (VHH)
VHH: QVQLVESGGGSVQAGGSLTLSCAVSGNTYSTKYMAWFRQAPGKEREGVAAILAGGRNTSYADSVKGRFTISQDNAKNTVYLQTNSLKPEDTAMYYCAADTRAAFWYIGPLNSHQYNIWGQGTQVTVSS
notes: as m59
B14: QP1140 nanobody (VHH)
VHH: QVQLVESGGGSVQAGGSLTLSCVVSGNTYSTKYMGWFRQAPGKEREGVAAILAGGRNTYYADSVKGRFTISQDNAKNTVYLQMNSLKPEDTAMYYCAADTRAAFWNIGPLNSDQYNIWGQGTQVTVSS
notes: as m59
B15: QP1142 nanobody (VHH)
VHH: QVQLVESGGGSVQAGGSLTLSCAVSGNTYSTNIMGWFRQAPGKEREGVAAILAGGRNTYYADSVKGRFTISQDNAKNTVYLQMNSLKPEDTAMYYCAADTRAAFWNIGPLNSDQYNIWGQGTQVTVSS
notes: as m59
B16: QP1158 nanobody (VHH)
VHH: QVQLVESGGGSVQAGGSLTLSCAVSGNTYSTKYMGWFRQAPGKEREGVAAILAGGRNTYYADSVKGRFTISQDNAKNTVYLRMNSLKPEDTAMYYCAADTRAALWYIGPLNSDQYNTWGQGTQVTVSS
notes: as m59
B17: QP1160 nanobody (VHH)
VHH: QVQLVESGGGSVQAGGSLTLSCAISGNTYSTKYMGWFRQAPGKEREGVAAILAGGRNTYYADSVKGRFTISQDNAKNTVYLQMNSLKPEDTAMYYCAADARAAFWYIGPLNSDQYNIWGQGTQVTVSS
notes: as m59
B18: QP1149 nanobody (VHH)
VHH: QVQLVESGGGSVQAGGSLTLSCAVSGNTYSTNYMGWFRQAPGKEREGVAAILAGGRNTYYADSVKGRFTISQDNAKDTVYLQMNSLKPEDTAMYYCAADTRAAFWNIGPLNSDQYNIWGQGTQVTVSS
notes: as m59
B19: QP1141 nanobody (VHH)
VHH: QVQLVESGGGSVQAGGSLTLSCAVSGNTYSTNAMGWFRQAPGKEREGVAAILGGGRNTYYADSVKGRFTISQDNAKNTVYLQMNSLKPEDTAMYYCAADTRAAFWNIGPLNSDQYNIWGQGTQVTVSS
notes: as m59
B20: QP1139 nanobody (VHH)
VHH: QVQLVESGGGSVQAGGSLTLSCAVSGNTYGTNAMGWFRQAPGKEREGVAAILGGGRNTYYADSVKGRFTISQDNAKNTVYLQMNSLKPEDTAMYYCAADTRAAFWNIGPLNSDQYNIWGQGTQVTVSS
notes: as m59
B21: QP1152 nanobody (VHH)
VHH: QVQLVESGGGSVQAGGSLTLSCAISGNTYSTKYMGWFRQAPGKEREGVAAILAGGRNTYYADSVKGRFTISQDNAKNTVYLQMHSLKPEDTAMYYCAADTRAAFWYIGPLNSDQYNLWGQGTQVTVSS
notes: as m59
B22: QP1155 nanobody (VHH)
VHH: QVQLVESGGGSVQAGGSLTLSCEVSGSTYSTNYMGWFRQAPGKEREGVAAILAGGRNTDYADSVKGRFTISQDNAKNTVYLQMNSLKPEDTAMYYCAADTRAAFWYIGPLNSDQYNIWGQGTQVTVSS
notes: as m59
B23: QP1154 nanobody (VHH)
VHH: QVQLVESGGGSVQAGGSLTLSCAVSGNTYSTNYMAWFRQAPGKEREGVAAIRAGGRNTDYADSVKGRFTISQDNAKNTVYLQMNSLKPEDTAMYYCAADTRAAFWYIGPLNSDQYNIWGQGTQVTVSS
notes: as m59
B24: QP1156 nanobody (VHH)
VHH: QVQLVESGGGSVQAGGSLTLSCAVSGNTYSTKYMGWFRQAPGKEREGVAAILAGGRNTYYADSVKGRFTISQDSAKNTVYLQMNSLKPEDTAMYYCAADTRAAFWYIGPLNSDQYNSWGQGTQVTVSS
notes: as m59
B25: QP1153 nanobody (VHH)
VHH: QVQLVESGGGSVQAGGSLTLSCAVSGNTYSTKYMGWFRQAPGKEREGVAAILAGGRNTDYADSVKGRFTISQDNAKNTVYLQMNSLKPEDTAMYYCAADTRAAFWSIGPLNSDQYNIWGQGTQVTVSS
notes: as m59
B26: QP1148 nanobody (VHH)
VHH: QVQLVESGGGSVQAGGSLTLSCAVSGNTYSTNYMGWFRQAPGKEREGVAAILAGGRNTAYADSVKGRFTISQDNAKNTVYLQMNSLKPEDTAMYYCAADTRAAFWNIGPLNSDQYNIWGQGTQVTVSS
notes: as m59
B27: QP1150 nanobody (VHH)
VHH: QVQLVESGGGSVQAGGSLTLSCAVSGNTYSTKYMGWFRQAPGKEREGVAAILAGGRNTHYADSVKGRFAISQDNAKNTVYLQMNSLKPEDTAMYYCAADTRAAFWNIGPLNSDQYNIWGQGTQVTVSS
notes: as m59
B28: QP1146 nanobody (VHH)
VHH: QVQLVESGGGSVQAGGSLTLSCAVSGNTYSTNYMGWFRQAPGKEREGVAAILVGGRNTYYADSVKGRFTISQDNAKNLVYLQMNSLKPEDTAMYYCAADTRAAFWNIGPLNSDQYNIWGQGTQVTVSS
notes: as m59
B29: QP1151 nanobody (VHH)
VHH: QVQLVESGGGSVQAGGSLTLSCAVSGNTYSTNYMGWFRQAPGKEREGVAAILTGGRNTYYADSVKGRFTISQDNAKNTVYLQMNSLKPEDTAMYYCAADTRAAFWNIGPLNSDQYNIWGQGTQVTVSS
notes: as m59
B30: QP1157 nanobody (VHH)
VHH: QVQLVESGGGSVQAGGSLTLSCAVSGNTYSTNYMGWFRQAPGKEREGVAAILVGGRNTYYADPVKGRFTISQDNAKNLVYLQMNSLKPEDTAMYYCAADTRAAFWNIGPLNSDQYNIWGQGTQVTVSS
notes: as m59
B31: QP1121 nanobody (VHH)
VHH: QVQLVESGGGSVHAGGSLRLSCVRVSMYTYTGTCMAWFRQAPGKEREGVAGLWTGDGVTYYADSVKGRFTISQDDAKNTLYLQMDSLKPEDTAMYYCASNGMCGQYWALEDEYKYWGQGTQVTVSS
notes: as m59

The target in this experiment is PD-L1-his fusion protein (Homo sapiens (Human), UniProt Q9NZQ7 19-238). Briefly: ELISA, PD-L1-his coated, culture supernatant of the clone.
PD-L1-his fusion protein, sequence (Q9NZQ7 other isoform, or with tags, fused parts or gaps limits assumed): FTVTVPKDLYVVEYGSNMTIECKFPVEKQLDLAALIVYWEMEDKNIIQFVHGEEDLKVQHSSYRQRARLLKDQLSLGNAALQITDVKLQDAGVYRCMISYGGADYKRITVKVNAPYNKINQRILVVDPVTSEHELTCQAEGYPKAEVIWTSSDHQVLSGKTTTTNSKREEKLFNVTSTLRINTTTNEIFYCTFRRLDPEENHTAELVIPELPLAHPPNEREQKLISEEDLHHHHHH
On to B1, for which the binding result was “binds”.
Then B2, with “binds”; and B3, with “binds”; and B4, with “binds”.
Then B5, with “binds”.
To B6 belongs “binds”; to B7, “binds”; to B8, “binds”.
As to B9, the binding result is recorded as “binds”.
To B10 belongs “binds”; to B11, “binds”; to B12, “binds”.
As for B13, the binding result is recorded as “binds”.
To B14 belongs “binds”; to B15, “binds”; to B16, “binds”.
Then B17, with “binds”; and B18, with “binds”.
Then B19, with “binds”; and B20, with “binds”; and B21, with “binds”.
On to B22, for which the binding result is “binds”.
Then B23, with “binds”; and B24, with “binds”.
To B25 belongs “binds”; to B26, “binds”.
To B27 belongs “binds”.
As to B28, the binding result is given as “binds”.
Then B29, with “binds”; and B30, with “binds”; and B31, with “binds”.
